The target in assay [1] is T1, human MMP-12 (human, UniProt P39900 106-470, limits assumed). As to the kind of experiment: cell-based or functional assay.
Assay [2] deals with T2, murine MMP-12 (mouse, UniProt P34960 110-473, limits assumed). Description: cell-based or functional assay.
Assay [3] addresses T1, human MMP-12. Description: cell-based or functional assay. The source holds these as a separate data set.
Assay [4] addresses T2, murine MMP-12. Description: BIACORE, coated Fab. Background: Surface plasmon resonance follows binding to a sensor surface in real time, without labels.
Assay [5] addresses T1, human MMP-12. As to the kind of experiment: BIACORE, coated Fab.
For assay [6], the target named is T2, murine MMP-12. As to the kind of experiment: IC50 against substrate concentration, enzyme inhibition, FIG. 3.
Assay [7] deals with T1, human MMP-12. The description is as above.
Assay [8] deals with T1, human MMP-12. Description: inhibition assay of MMP-12 activity ('IC50 or Ki').
Assay [9] addresses T1, human MMP-12. As to the kind of experiment: cell-based or functional assay. The source holds these as a separate data set.
Assay [10] addresses T1, human MMP-12. Description: Ki from inhibition of MMP-12 enzyme activity.

T1 sequence (P39900 106-470 limits assumed): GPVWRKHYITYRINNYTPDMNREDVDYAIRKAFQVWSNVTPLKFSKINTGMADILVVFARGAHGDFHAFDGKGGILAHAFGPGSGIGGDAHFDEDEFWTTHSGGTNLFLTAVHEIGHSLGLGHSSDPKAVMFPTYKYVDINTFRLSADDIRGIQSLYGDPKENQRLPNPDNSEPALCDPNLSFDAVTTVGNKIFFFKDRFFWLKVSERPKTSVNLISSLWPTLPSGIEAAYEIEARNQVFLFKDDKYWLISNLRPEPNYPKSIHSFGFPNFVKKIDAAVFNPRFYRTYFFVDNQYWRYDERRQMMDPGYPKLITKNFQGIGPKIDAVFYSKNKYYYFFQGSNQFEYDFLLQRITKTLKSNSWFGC
T2 sequence (P34960 110-473 limits assumed): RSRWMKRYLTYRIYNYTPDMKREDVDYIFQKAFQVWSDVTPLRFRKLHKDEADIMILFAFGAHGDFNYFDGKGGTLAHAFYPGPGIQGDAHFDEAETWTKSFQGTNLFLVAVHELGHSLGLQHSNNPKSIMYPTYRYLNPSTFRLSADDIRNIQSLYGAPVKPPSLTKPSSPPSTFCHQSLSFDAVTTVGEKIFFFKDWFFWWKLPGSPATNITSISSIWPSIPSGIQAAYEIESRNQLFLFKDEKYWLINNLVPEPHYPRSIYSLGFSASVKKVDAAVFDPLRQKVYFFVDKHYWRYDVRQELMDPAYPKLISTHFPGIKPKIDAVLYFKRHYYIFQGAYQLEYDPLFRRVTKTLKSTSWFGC

B1: 539B-M0007-H06 (Fab, V domains shown)
VH: EVQLLESGGGLVQPGGSLRLSCAASGFTFSHYWMHWVRQAPGKGLEWVSSISSSGGMTYYADSVKGRFTISRDNSKNTLYLQMNSLRAEDTAVYYCTTADYGYYYGMDVWGQGTTVTVSS
VL: DIQMTQSPGTLSLSSGERATLSCRASQSVSSNYLAWYQQKRGQAPRLLIYGASSRATGVPGRFSGSGSGTDFTLTISRLEPEDFAVYYCQQYGSSPRTFGQGTKLEIK
On to B1, for which, in the assay with human MMP-12 [1], the “% of activity left with 100 nM in assay 04 Oct. 2006” value (“% of activity left with 100 nM” below) came out at 55.5%.

B2: 539B-M0008-H09 Fab (Fab, V domains shown)
VH: EVQLLESGGGLVQPGGSLRLSCAASGFTFSDYNMHWVRQAPGKGLEWVSYIGPSGGYTHYADSVKGRFTISRDNSKNTLYLQMNSLRAEDTAVYYCAKDIRGAYSSGLFDYWGRGTLVTVSS
VL: DIQMTQSPSSLSASVGDRVTITCRANQSIYTYLNWYQQKPGKAPELLIYAASSLQSGVPSRFSGSGSGTDFTLTISSLQPEDFATYYCQQAGIFGQGTKLEIK
notes: N-glycosylation site in LC CDR1; also called M08H09
The koff is the first-order rate constant of dissociation. A high value points to a short-lived complex. Broadly, the Kd is the free concentration of one partner at which half of the binding sites on the other are occupied at equilibrium, for simple one-to-one binding. Turning to B2, the “% of activity left with 100 nM” value with human MMP-12 [1] was found to be 4.6%. The IC50 m with murine MMP-12 [2] was < 10 nM (not printed; inferred). Also, the “IC50hu” value with human MMP-12 [3] is 12.1 nM. The molecule further showed a koff with murine MMP-12 [4] of 0.004 s⁻¹. The same molecule had a Kd in the assay with human MMP-12 [5] of 17.7 nM.

B3: 539B-M0008-H09 (format not stated) (antibody, V domains shown)
VH: EVQLLESGGGLVQPGGSLRLSCAASGFTFSDYNMHWVRQAPGKGLEWVSYIGPSGGYTHYADSVKGRFTISRDNSKNTLYLQMNSLRAEDTAVYYCAKDIRGAYSSGLFDYWGRGTLVTVSS
VL: DIQMTQSPSSLSASVGDRVTITCRANQSIYTYLNWYQQKPGKAPELLIYAASSLQSGVPSRFSGSGSGTDFTLTISSLQPEDFATYYCQQAGIFGQGTKLEIK
notes: Same clone as m49 and m54; also called M08H09
A word on the Ki: it is a measure of affinity in units of concentration, obtained from inhibition or displacement. A low value points to higher affinity. Take B3: the Ki in the assay with murine MMP-12 [6] was found to be 2.2 nM; with human MMP-12 [7], 2.8 nM.

B4: 539B-M0063-C07 (Fab, V domains shown)
VH: EVQLLESGGGLVQPGGSLRLSCAASGFTFSPYWMSWVRQAPGKGLEWVSGISPSGGITFYADSVKGRFTISRDNSKNTLYLQMNSLRAEDTAVYYCAKDIRGAYSSGLFDYWGRGTLVTVSS
VL: DIQMTQSPSSLSASVGDRVTITCRANQSIYTYLNWYQQKPGKAPELLIYAASSLQSGVPSRFSGSGSGTDFTLTISSLQPEDFATYYCQQAGIFGQGTKLEIK
With B4, the IC50 m with murine MMP-12 [2] was < 10 nM (not printed; inferred). In addition, in the assay with human MMP-12 [3], the “IC50hu” value was 1 nM. This molecule also showed a koff with murine MMP-12 [4] of 0.002 s⁻¹. The molecule also had a Kd with human MMP-12 [5] of 2.29 nM.

B5: 539B-M0063-G01 (Fab, V domains shown)
VH: EVQLLESGGGLVQPGGSLRLSCAASGFTFSWYWMVWVRQAPGKGLEWVSSIGPSGGDTYYADSVKGRFTISRDNSKNTLYLQMNSLRAEDTAVYYCAKDIRGAYSSGLFDYWGRGTLVTVSS
VL: DIQMTQSPSSLSASVGDRVTITCRANQSIYTYLNWYQQKPGKAPELLIYAASSLQSGVPSRFSGSGSGTDFTLTISSLQPEDFATYYCQQAGIFGQGTKLEIK
For the molecule B5, the IC50 m with murine MMP-12 [2] is > 10 nM (not printed; inferred). For the same molecule, the “IC50hu” value in the assay with human MMP-12 [3] was 0.8 nM. Further, in the assay with murine MMP-12 [4], the koff worked out at 0.00654 s⁻¹. Also, the affinity with human MMP-12 [5], expressed as Kd, was 1.58 nM.

B6: 539B-M0063-B11 (Fab, V domains shown)
VH: EVQLLESGGGLVQPGGSLRLSCAASGFTFSPYWMHWVRQAPGKGLEWVSGIGPSGGLTFYADSVKGRFTISRDNSKNTLYLQMNSLRAEDTAVYYCAKDIRGAYSSGLFDYWGRGTLVTVSS
VL: DIQMTQSPSSLSASVGDRVTITCRANQSIYTYLNWYQQKPGKAPELLIYAASSLQSGVPSRFSGSGSGTDFTLTISSLQPEDFATYYCQQAGIFGQGTKLEIK
On to B6, for which the IC50 m with murine MMP-12 [2] is > 10 nM (not printed; inferred). Moreover, the “IC50hu” value with human MMP-12 [3] is 0.7 nM. This molecule also registered a koff with murine MMP-12 [4] of 0.00311 s⁻¹. In the assay with human MMP-12 [5], this molecule gave a Kd of 0.12 nM.

B7: 539B-M131A06 (antibody, V domains shown)
VH: EVQLLESGGGLVQPGGSLRLSCAASGFTFSWYWMHWVRQAPGKGLEWVSGISPSGGMTMYADSVKGRFTISRDNSKNTLYLQMNSLRAEDTAVYYCARDIVGPYSAGLFDYWGRGTLVTVSS
VL: DIQMTQSPSSLSASVGDRVTITCRANQSIYTYLNWYQQKPGKAPELLIYAASSLQSGVPSRFSGSGSGTDFTLTISSLQPEDFATYYCQQAGIFGQGTKLEIK
notes: N-glycosylation site in LC CDR1; also called M0131-A06
As to B7, in the assay with human MMP-12 [8], the Ki is < 0.3 nM.

B8: 539B-M0071-A01 (Fab, V domains shown)
VH: EVQLLESGGGLVQPGGSLRLSCAASGFTFSEYWMTWVRQAPGKGLEWVSGISPSGGMTFYADSVKGRFTISRDNSKNTLYLQMNSLRAEDTAVYYCAKDIRGAYSSGLFDYWGRGTLVTVSS
VL: DIQMTQSPSSLSASVGDRVTITCRANQSIYTYLNWYQQKPGKAPELLIYAASSLQSGVPSRFSGSGSGTDFTLTISSLQPEDFATYYCQQAGIFGQGTKLEIK
For the molecule B8, the IC50 m with murine MMP-12 [2] is > 10 nM (not printed; inferred). The “IC50hu” value in the assay with human MMP-12 [3] turned out to be 0.3 nM. In the assay with murine MMP-12 [4], this molecule came in with a koff of 0.01 s⁻¹. The same molecule had a Kd with human MMP-12 [5] of 1.1 nM.

B9: 539B-M0063-B01 (Fab, V domains shown)
VH: EVQLLESGGGLVQPGGSLRLSCAASGFTFSWYWMGWVRQAPGKGLEWVSSISPSGGYTFYADSVKGRFTISRDNSKNTLYLQMNSLRAEDTAVYYCAKDIRGAYSSGLFDYWGRGTLVTVSS
VL: DIQMTQSPSSLSASVGDRVTITCRANQSIYTYLNWYQQKPGKAPELLIYAASSLQSGVPSRFSGSGSGTDFTLTISSLQPEDFATYYCQQAGIFGQGTKLEIK
Take B9: the IC50 m with murine MMP-12 [2] is > 10 nM (not printed; inferred). Moreover, the “IC50hu” value in the assay with human MMP-12 [3] was 0.7 nM. Further, the koff with murine MMP-12 [4] was determined as 0.0025 s⁻¹. Besides, binding in the assay with human MMP-12 [5] was put at a Kd of 0.171 nM.

B10: 539B-M0067-F06 (Fab, V domains shown)
VH: EVQLLESGGGLVQPGGSLRLSCAASGFTFSWYNMSWVRQAPGKGLEWVSRISPSGGDTGYADSVKGRFTISRDNSKNTLYLQMNSLRAEDTAVYYCAKDIRGAYSSGLFDYWGRGTLVTVSS
VL: DIQMTQSPSSLSASVGDRVTITCRANQSIYTYLNWYQQKPGKAPELLIYAASSLQSGVPSRFSGSGSGTDFTLTISSLQPEDFATYYCQQAGIFGQGTKLEIK
Regarding B10, the IC50 m with murine MMP-12 [2] was < 10 nM (not printed; inferred). The “IC50hu” value in the assay with human MMP-12 [3] was determined as 0.7 nM. In the assay with murine MMP-12 [4], the koff was 0.00025 s⁻¹. The molecule also registered a Kd with human MMP-12 [5] of 0.203 nM.

B11: 539A-M0013-D11 IgG (antibody, V domains shown)
VH: EVQLLESGGGLVQPGGSLRLSCAASGFTFSSYPMWWVRQAPGKGLEWVSGIVPSGGVTIYADSVKGRFTISRDNSKNTLYLQMNSLRAEDTAVYYCARVGWLASSDYYYYMDVWGKGTTVTVSS
VL: DIQMTQSPSSLSASVGDRITISCQASQDIDNYLNWYQQRSGKAPKLLIYDAYNLKAGVPSRFRGSRSGTDFFLTISSLQPEDFATYYCQQSYRAPLTFGGGTKVEIK
B11: in the assay with human MMP-12 [9], the “IC50 (nM), IgGs” value came to 13.3 nM. For the same molecule, in the assay with human MMP-12 [10], the affinity, expressed as Ki, was 4.97 nM.

B12: 539A-M0013-G12 IgG (antibody, V domains shown)
VH: EVQLLESGGGLVQPGGSLRLSCAASGFTFSWYHMFWVRQAPGKGLEWVSGISSSGGYTHYADSVKGRFTISRDNSKNTLYLQMNSLRAEDTAVYYCATREGMLYDYVWGENYMDVWGKGTTVTVSS
VL: DIQMTQSPSSLSASVGDRVTITCQASQDTYNRLHWYQQKPGKAPKLLIYDAVNLNRGVPSRFRGSGSGTNYILIITNLQPEDTATYYCQHSDDLSLAFGGGTKVEIK
notes: also called M0013-G12 IgG a-huMMP12
B12: the “IC50 (nM), IgGs” value with human MMP-12 [9] came to 4.1 nM. Moreover, the Ki with human MMP-12 [10] came to 2.05 nM.

B13: 539B-M0015-F02 (Fab, V domains shown)
VH: EVQLLESGGGLVQPGGSLRLSCAASGFTFSRYGMTWVRQAPGKGLEWVSGISPSGGNTWYADSVKGRFTISRDNSKNTLYLQMNSLRAEDTAVYYCTSHDYGDHYGMDVWGQGTLVTVSS
VL: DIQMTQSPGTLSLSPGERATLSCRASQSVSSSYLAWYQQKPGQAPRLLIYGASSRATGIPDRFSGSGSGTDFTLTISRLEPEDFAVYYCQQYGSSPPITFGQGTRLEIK
For B13, in the assay with human MMP-12 [1], the “% of activity left with 100 nM” value was 84.1%.

B14: 539B-M0011-H11 Fab (Fab, V domains shown)
VH: EVQLLESGGGLVQPGGSLRLSCAASGFTFSWYNMWWVRQAPGKGLEWVSYIYPSGGNTGYADSVKGRFTISRDNSKNTLYLQMNSLRAEDTAVYYCAVFEYSSSGPQGYWGQGTLVTVSS
VL: QSALTQPPSVSVAPGQTARITCGGNNIGTKSVHWYQQKSGQAPVLVVYDNSDRPSGIPERFSGSNSGNTATLTISRVEAGDEADYYCQVWDNSIDHVVFGGGTKLTVL
Turning to B14, the “% of activity left with 100 nM” value with human MMP-12 [1] stood at 12.2%.

B15: 539A-M0016-A11 IgG (antibody, V domains shown)
VH: EVQLLESGGGLVQPGGSLRLSCAASGFTFSEYQMAWVRQAPGKGLEWVSSIYPSGGHTHYADSVKGRFTISRDNSKNTLYLQMNSLRAEDTAVYYCAKESYYDFWSGYYFDYWGQGTLVTVSS
VL: DIQMTQSPSSLSASVRDRVTITCRTSQNINTYLNWYYQAPGRAPKLLIFGVSSLHRGVSSRFSGSGDGTEFTLTISSLQPEDIGTYFCQQSYSSPWTFGQGTKVEIK
notes: also called M0016-A11 IgG a-huMMP12
Regarding B15, in the assay with human MMP-12 [9], the “IC50 (nM), IgGs” value amounted to 2.1 nM. In the assay with human MMP-12 [10], this molecule displayed a Ki of 0.7 nM.

B16: 539A-M0013-H06 IgG (antibody, V domains shown)
VH: EVQLLESGGGLVQPGGSLRLSCAASGFTFSAYEMDWVRQAPGKGLEWVSGISSSGGPTYYADSVKGRFTISRDNSKNTLYLQMNSLRAEDTAVYYCARVGGWELLQDYYYYMDVWGKGTTVTVSS
VL: DIQMTQSPATLSLSPGERATLSCRASHSVDNLAWYQQQPGQAPRLLIYDVSYRATGIPARFSGSGSGTDFTLTISSLEPEDFAVYYCQQRNNWPLSLTFGGGTKVEIK
Take B16: the “IC50 (nM), IgGs” value with human MMP-12 [9] came out at 5.3 nM. The same molecule returned a Ki with human MMP-12 [10] of 2.7 nM.

The values are drawn from patent publication US8114968 (DYAX, dated 2012).
